Results as given in publication PMC3172200 (PLoS Biology, 2011).
Where no end group is shown, it is not given here. [ ]: non-standard residue; d: D form.

T1: recombinant wild type SEB with N-terminal His6-tag (S. aureus COL, UniProt P01552 28-266)
T1 sequence: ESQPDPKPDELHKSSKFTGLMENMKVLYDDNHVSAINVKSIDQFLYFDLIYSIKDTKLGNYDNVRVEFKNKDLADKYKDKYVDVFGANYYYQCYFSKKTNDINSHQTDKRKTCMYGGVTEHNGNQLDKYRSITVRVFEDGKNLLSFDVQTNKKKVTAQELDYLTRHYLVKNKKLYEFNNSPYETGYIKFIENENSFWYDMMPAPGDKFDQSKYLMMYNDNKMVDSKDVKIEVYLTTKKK

B1: p1TA (HVKGKHLCP; CD28 116-124), form for biological assays (peptide)
peptide: [dA]HVKGKHLCP[dA]
notes: source: synthetic peptide
B2: p2TA (SPMLVAYD; CD28 8-15), form for biological assays (peptide)
peptide: ASPMLVAYDA
modifications: D-Ala at both termini
notes: source: synthetic peptide

Molecular target: T1, recombinant wild type SEB with …
Assay: western blot of SEB bound to transfected cells
Settings: both partners purified

Binder	binding result
B1	binds
B2	binds
